First the molecules themselves.
T1: Papain (UniProt P00784 134-345)
T1 chain: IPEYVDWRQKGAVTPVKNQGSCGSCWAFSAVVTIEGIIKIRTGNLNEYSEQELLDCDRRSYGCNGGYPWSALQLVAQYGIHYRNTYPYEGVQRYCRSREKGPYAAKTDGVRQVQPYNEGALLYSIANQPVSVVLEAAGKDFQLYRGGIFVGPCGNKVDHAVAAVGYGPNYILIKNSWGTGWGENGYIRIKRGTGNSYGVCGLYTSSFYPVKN

T2: Papain (UniProt P00784 134-345)
T2 construct: also called cysteine peptidase papain; cysteine protease papain; source: bought: Sigma
T2 sequence (looked up): T1 chain

B1: Clt-MpL fusion protein (clitocypin, (GGGGS)3 linker, MpL) (other)
chain: MASLEDGTYRLRAVTTSNPDPGVGGEYATVEGARQPVKAEPSTPPFFERQIWQVTRNSDGQSTIKYQGLNAPFEYGFSYDQLEQNAPVIAGDPKEYILQLVPSTTDVYIIRAPIQRVGVDVEVGVQGNNLVYKFFPVDGSGGDRPAWRFTREGGGGSGGGGSGGGGSMSTQVSSGQTYKITNVKAGTVIDLSGEDNKSIIGYPYHSGKNQQWTFNWTGKAWTLRSASSGSYLGIEGTPADGTRLVAVNDPFEWHIWRDEANENAFRIFVPFTNYNLDLSGYGDTTPGTPVQLWWTWEGLHQTWTIDRP
modifications: Clitocypin species taken from the candidate for the printed accession Q3Y9I6; MpL species is printed. (GGGGS)3 linker kept because it joins the two domains. MpL Met1 may be absent in the fusion. Dimeric forms were observed; copies given per chain.
B2: Recombinant clitocypin (Clt) (natural protein, UniProt Q3Y9I6 1-152, looked up)
chain: MASLEDGTYRLRAVTTSNPDPGVGGEYATVEGARQPVKAEPSTPPFFERQIWQVTRNSDGQSTIKYQGLNAPFEYGFSYDQLEQNAPVIAGDPKEYILQLVPSTTDVYIIRAPIQRVGVDVEVGVQGNNLVYKFFPVDGSGGDRPAWRFTRE
notes: also called rClt; unlinked Clt; source: E. coli, purified as described [19]
B3: CysC-MpL fusion protein (cystatin C, (GGGGS)3 linker, MpL) (other)
chain: SSPGKPPRLVGGPMDASVEEEGVRRALDFAVGEYNKASNDMYHSRALQVVRARKQIVAGVNYFLDVELGRTTCTKTQPNLDNCPFHDQPHLKRKAFCSFQIYAVPWQGTMTLSKSTCQDAGGGGSGGGGSGGGGSMSTQVSSGQTYKITNVKAGTVIDLSGEDNKSIIGYPYHSGKNQQWTFNWTGKAWTLRSASSGSYLGIEGTPADGTRLVAVNDPFEWHIWRDEANENAFRIFVPFTNYNLDLSGYGDTTPGTPVQLWWTWEGLHQTWTIDRP
modifications: Cystatin C without its 26-residue signal peptide (stated for unlinked CysC, assumed for the fusion). (GGGGS)3 linker kept because it joins the two domains. Vector start Met not added; MpL Met1 may be absent in the fusion. Dimeric forms were observed; copies given per chain.
B4: Recombinant cystatin C (CysC) (natural protein, human, UniProt P01034 27-146, looked up)
chain: SSPGKPPRLVGGPMDASVEEEGVRRALDFAVGEYNKASNDMYHSRALQVVRARKQIVAGVNYFLDVELGRTTCTKTQPNLDNCPFHDQPHLKRKAFCSFQIYAVPWQGTMTLSKSTCQDA
notes: Human cystatin C without its signal peptide of 26 amino acids; It was cloned through NdeI and BamHI into pET11a, so an initiator methionine is likely; also called unlinked CysC

The first test addresses T1, Papain.
Experiment: not given
Settings: not given
For B1, the Ki is 161 nM. In turn, B2 showed an inhibitory constant (Ki) of 60.8 nM. This Ki lies about 2.6-fold lower than the previous one.

Take B3: the affinity, expressed as Ki, was 41 nM.

B4 yielded a Ki of 85.5 nM.

A further test concerns the target T2, Papain. Description: enzyme inhibition kinetics (Ki, Henderson equation for tight binding competitive inhibitors); papain 2.6 nM, different concentrations of inhibitor proteins, 0.1 M MES, 5 mM DTT, 0.1 mM Z-Phe-Arg-AMC, pH 6.5, 25°C, fluorescence 370/460 nm. Conditions: both partners purified.
As to B2, the binding result is listed as “binds”. With B4, the binding result was “binds”.

(Values after publication PMC5432305, “Fungal lectin MpL enables entry of protein drugs into cancer cells and their subcellular targeting” (Oncotarget, 2017).)
